Data from PMC7948760.
Like-named read-outs stand apart in the source and are kept apart here. Each block holds one substance with its values, some of them ahead of it.

Columns and labels:
[1] = target: OG488-TFPIα-BR, TFPIα-BR modified with Oregon Green488 maleimide (human); assay: fluorescence polarisation; steady-state anisotropy; FV species (0–100 nM) titrated into 20 nM OG488-TFPIα-BR and 50 μM PCPS, assay buffer (20 mM HEPES, 0.15 M NaCl, 5 mM CaCl2, 0.1% PEG 8000, pH 7.4), 25 °C; fit to independent, noninteracting sites
TFPIα (Homo sapiens) = TFPIα (Homo sapiens) (UniProt P10646); assay: SPR; settings: cited from earlier work
Sequence of TFPIα (Homo sapiens) (P10646 29-304): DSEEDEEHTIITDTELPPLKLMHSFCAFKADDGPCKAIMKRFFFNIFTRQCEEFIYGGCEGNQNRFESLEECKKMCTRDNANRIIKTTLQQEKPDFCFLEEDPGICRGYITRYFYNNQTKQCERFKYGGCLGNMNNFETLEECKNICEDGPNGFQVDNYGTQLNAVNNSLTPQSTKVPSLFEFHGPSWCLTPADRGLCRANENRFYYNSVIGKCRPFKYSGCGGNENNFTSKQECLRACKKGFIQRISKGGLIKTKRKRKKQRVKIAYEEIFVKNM

[2] = target: FV-short-RQ∗ (FV-short-RQ precleaved at Arg709 with thrombin) (human) (UniProt P12259); assay: inhibition of prothrombinase (prothrombin activation assay); 0.1 nM cofactor species, 50 μM PCPS, 1.4 μM prothrombin, 3 μM DAPA, TFPIα 0–500 nM with a twofold excess of anti-K2 antibody to block FXa inhibition, started with 2 nM FXa, assay buffer, 25 °C; Ki from the equation for competitive inhibition
Sequence of FV-short-RQ∗ (FV-short-RQ precleaved at Arg709 with thrombin) (human) (P12259 29-737, chain 1 of 2): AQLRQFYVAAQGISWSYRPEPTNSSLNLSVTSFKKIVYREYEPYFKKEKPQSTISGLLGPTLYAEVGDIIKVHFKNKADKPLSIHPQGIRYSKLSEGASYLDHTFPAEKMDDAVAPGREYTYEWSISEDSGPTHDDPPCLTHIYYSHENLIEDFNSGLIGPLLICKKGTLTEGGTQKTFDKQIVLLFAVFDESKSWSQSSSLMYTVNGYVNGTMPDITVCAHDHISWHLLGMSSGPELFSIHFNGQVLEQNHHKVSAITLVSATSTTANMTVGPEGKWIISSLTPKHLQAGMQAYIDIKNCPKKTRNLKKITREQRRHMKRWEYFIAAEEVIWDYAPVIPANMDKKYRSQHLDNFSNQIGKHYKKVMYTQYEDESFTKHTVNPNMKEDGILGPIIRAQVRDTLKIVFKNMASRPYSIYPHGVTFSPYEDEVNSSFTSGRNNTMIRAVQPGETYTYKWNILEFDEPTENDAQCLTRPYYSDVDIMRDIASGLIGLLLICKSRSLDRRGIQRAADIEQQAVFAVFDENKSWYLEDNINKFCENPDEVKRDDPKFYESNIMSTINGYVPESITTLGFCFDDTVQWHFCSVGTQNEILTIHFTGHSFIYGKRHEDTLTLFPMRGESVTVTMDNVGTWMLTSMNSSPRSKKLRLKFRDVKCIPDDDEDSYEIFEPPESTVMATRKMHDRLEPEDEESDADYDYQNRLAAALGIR
Sequence of FV-short-RQ∗ (FV-short-RQ precleaved at Arg709 with thrombin) (human) (P12259 other isoform, or with tags, fused parts or gaps, chain 2 of 2): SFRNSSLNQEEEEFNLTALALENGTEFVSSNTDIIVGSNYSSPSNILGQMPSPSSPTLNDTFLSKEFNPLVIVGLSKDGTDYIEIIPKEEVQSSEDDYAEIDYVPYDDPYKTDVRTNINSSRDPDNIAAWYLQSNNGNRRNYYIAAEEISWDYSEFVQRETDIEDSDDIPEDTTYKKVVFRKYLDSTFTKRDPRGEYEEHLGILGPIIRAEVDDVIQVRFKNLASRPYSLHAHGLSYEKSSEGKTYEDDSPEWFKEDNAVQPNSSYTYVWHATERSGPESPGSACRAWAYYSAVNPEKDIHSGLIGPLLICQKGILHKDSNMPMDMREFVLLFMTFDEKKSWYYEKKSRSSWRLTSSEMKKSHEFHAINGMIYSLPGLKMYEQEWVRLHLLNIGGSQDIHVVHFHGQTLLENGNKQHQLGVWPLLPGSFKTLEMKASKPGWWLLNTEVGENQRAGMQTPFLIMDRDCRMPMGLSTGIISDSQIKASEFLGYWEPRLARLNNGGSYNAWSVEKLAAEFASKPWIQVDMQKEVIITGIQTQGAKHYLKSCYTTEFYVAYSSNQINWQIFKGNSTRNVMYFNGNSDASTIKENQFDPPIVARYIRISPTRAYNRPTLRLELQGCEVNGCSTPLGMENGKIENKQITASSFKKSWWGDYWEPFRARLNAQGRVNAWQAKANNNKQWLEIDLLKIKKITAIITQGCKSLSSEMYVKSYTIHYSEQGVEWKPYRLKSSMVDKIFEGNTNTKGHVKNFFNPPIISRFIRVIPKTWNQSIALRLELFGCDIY

[3] = target: FV-short (factor V isoform with B-domain residues 756 to 1458 deleted) (human); assay: as above
[4] = target: FV-short-QQ (FV-short with Arg709 and Arg1545 replaced with Gln) (human); assay: as above
[5] = target: FV-short-RQ∗ (FV-short-RQ precleaved at Arg709 with thrombin) (human) (UniProt P12259); assay: as above; remark: listed apart in the source
[6] = target: activated factor V (FVa) (human) (UniProt P12259); assay: as above
Sequence of activated factor V (FVa) (human) (P12259 29-737, chain 1 of 2): as the sequence (P12259 29-737, chain 1 of 2) above
Sequence of activated factor V (FVa) (human) (P12259 1574-2224, chain 2 of 2): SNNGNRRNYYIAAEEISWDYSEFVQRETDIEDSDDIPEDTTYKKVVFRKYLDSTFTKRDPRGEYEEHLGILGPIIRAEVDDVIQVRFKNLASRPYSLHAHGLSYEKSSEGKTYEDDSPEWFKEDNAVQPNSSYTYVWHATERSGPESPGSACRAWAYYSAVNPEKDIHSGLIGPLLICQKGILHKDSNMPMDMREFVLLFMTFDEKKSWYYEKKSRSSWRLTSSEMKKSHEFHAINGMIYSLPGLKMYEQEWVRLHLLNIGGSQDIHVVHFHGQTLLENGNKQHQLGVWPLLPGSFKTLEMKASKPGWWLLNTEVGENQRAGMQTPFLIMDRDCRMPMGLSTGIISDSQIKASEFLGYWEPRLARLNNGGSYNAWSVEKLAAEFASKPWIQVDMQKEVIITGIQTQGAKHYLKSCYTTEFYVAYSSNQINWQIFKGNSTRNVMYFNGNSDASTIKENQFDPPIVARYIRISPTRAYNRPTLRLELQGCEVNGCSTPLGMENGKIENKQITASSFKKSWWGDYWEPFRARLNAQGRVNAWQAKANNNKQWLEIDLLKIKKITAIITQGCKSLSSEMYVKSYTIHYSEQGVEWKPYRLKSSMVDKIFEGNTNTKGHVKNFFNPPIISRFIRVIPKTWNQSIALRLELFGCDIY

[7] = target: FV-short (factor V isoform with B-domain residues 756 to 1458 deleted) (human); assay: as above; remark: listed apart in the source
[8] = target: FV-short-QR∗ (FV-short-QR precleaved at Arg1545 with RVV-V) (human) (UniProt P12259); assay: as above
Sequence of FV-short-QR∗ (FV-short-QR precleaved at Arg1545 with RVV-V) (human) (P12259 other isoform, or with tags, fused parts or gaps, chain 1 of 2): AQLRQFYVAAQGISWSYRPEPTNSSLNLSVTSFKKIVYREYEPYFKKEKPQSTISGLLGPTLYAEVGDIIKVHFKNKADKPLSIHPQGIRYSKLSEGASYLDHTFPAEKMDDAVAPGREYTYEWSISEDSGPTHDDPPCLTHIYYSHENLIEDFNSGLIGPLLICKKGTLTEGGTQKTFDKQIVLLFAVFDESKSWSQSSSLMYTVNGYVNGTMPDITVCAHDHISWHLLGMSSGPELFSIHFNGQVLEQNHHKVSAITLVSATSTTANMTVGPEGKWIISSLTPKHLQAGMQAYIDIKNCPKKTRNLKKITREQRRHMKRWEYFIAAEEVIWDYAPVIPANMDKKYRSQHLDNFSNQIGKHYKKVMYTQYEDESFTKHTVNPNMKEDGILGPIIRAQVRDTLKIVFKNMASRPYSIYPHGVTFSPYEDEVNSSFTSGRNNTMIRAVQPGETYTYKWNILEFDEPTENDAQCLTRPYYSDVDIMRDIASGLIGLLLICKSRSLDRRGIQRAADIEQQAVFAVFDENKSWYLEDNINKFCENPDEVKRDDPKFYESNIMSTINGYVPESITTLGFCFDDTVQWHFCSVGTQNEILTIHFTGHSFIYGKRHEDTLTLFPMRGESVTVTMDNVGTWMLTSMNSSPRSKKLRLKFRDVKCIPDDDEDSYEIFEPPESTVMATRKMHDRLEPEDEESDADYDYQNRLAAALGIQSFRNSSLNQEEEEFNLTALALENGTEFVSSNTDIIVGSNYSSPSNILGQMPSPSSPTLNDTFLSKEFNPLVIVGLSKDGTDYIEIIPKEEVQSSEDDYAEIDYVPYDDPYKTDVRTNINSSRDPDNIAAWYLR
Sequence of FV-short-QR∗ (FV-short-QR precleaved at Arg1545 with RVV-V) (human) (P12259 1574-2224, chain 2 of 2): as the sequence (P12259 1574-2224, chain 2 of 2) above

[9] = target: FV-short-QQ (FV-short with Arg709 and Arg1545 replaced with Gln) (human); assay: as above; remark: listed apart in the source
[10] = target: FV-short-QQ (FV-short with Arg709 and Arg1545 replaced with Gln) (human); assay: fluorescence polarisation; competition: unlabeled TFPIα-BR (0–2 μM) or TFPIα (0–1 μM) titrated into 25 nM OG488-TFPIα-BR, 20 nM FV-short-QQ and 50 μM PCPS, assay buffer, 25 °C; stoichiometry of 1 assumed

Sequence of factor V (P12259 1574-2224): as the sequence (P12259 1574-2224, chain 2 of 2) above

stoichiometry N [1]: 1.25
Substance: FV-short (factor V isoform with B-domain residues 756 to 1458 deleted) (natural protein)

Substance: factor V (from UniProt P12259)
Kd (TFPIα (Homo sapiens)): 13 nM

Ki [2]: 0.26 nM | Ki [3]: 0.14 nM | Ki [4]: 0.1 nM | Ki [5]: 0.24 nM | Ki [6]: > 500 nM | Ki [7]: 0.23 nM | Ki [8]: > 500 nM | Ki [9]: 0.11 nM | Kd [10]: 0.73 nM
Substance: tissue factor pathway inhibitor alpha (TFPIα), full-length (from UniProt P10646-1 29-304) (natural protein)
